Values belong to the molecule of their own block, whether it stands above or below them.
Tests used:
[1] = target: DmsA-Y1 (entire DmsA enzyme fused to the N-terminal YFP fragment) (E. coli) (UniProt P18775); experiment: split reporter (BiFC, NanoBiT); split YFP (Y1 1-154, Y2 155-238) BiFC in living E. coli TG1 cells (wt; also ΔtatE, ΔtatB, ΔtatC, ΔtatAE, ΔtatABCE); 1 mM IPTG, 8 h at room temperature; median cell fluorescence by flow cytometry, normalised to ssDmsA-Y1/DmsD-Y2, and fluorescence microscopy; substrate or signal peptide with …
[2] = target: ssDmsA-Y1 (DmsA signal peptide fused to the N-terminal YFP fragment) (E. coli); experiment: as above
[3] = target: TatB fused to a YFP fragment (TatB-Y1; TatB-Y2) (E. coli) (UniProt P69425); experiment: split reporter (BiFC, NanoBiT); split YFP BiFC in living TG1 ΔtatABCE cells (TatA also in ΔtatAE, TatB/TatC also in ΔtatB and ΔtatC); median fluorescence by flow cytometry against unfused Y1 or Y2 controls, fluorescence microscopy
[4] = target: TatC fused to a YFP fragment (TatC-Y1; TatC-Y2) (E. coli) (UniProt P69423); experiment: as above
[5] = target: TatC(E103R) fused to a YFP fragment (E103R-Y1; E103R-Y2) (E. coli) (UniProt P69423); experiment: as above
[6] = target: TatC(P48A) fused to a YFP fragment (P48A-Y1; P48A-Y2) (E. coli) (UniProt P69423); experiment: as above
[7] = target: the molecule itself; experiment: as above

- BiFC signal relative to the ssDmsA-Y1/DmsD-Y2 pair [1]: 50%
- DmsA binding activity ([1]; scale: relative): 0.62
- BiFC fluorescence, fold over background (unfused Y1 with DmsD-Y2) [2]: 5 fold
- median fluorescence (M) [2]: 2250
- ssDmsA binding activity ([2]; scale: relative): 1
Molecule: DmsD fused to a YFP fragment (DmsD-Y2; DmsD-Y1) (from UniProt P69853 1-204) (natural protein)

- BiFC signal, fold above background [3]: 5.4 fold
- BiFC signal, fold above background [4]: 10.7 fold
Molecule: ssDmsA(KK)-Y1 (domain or fragment)

- BiFC signal, fold above background [3]: 3.5 fold
- BiFC signal, fold above background [4]: 7 fold
- BiFC signal, fold less than with wt TatC [5]: 2 fold
- BiFC signal, fold less than with wt TatC [6]: 2 fold
Molecule: ssDmsA-Y1 (DmsA signal peptide fused to the N-terminal YFP fragment) (domain or fragment)

B1: TatA(F39A) fused to a YFP fragment (F39A-Y1; F39A-Y2) (natural protein, E. coli, UniProt P69428 1-89, looked up)
chain: MGGISIWQLLIIAVIVVLLFGTKKLGSIGSDLGASIKGAKKAMSDDEPKQDKTSQDADFTAKTIADKQADTNQEQAKTEDAKRHDKEQV
notes: TatA, E. coli, full length, with F39A in the predicted amphipathic region; also called TatA(F39A)-Y1; TatA(F39)-Y2; source: E. coli TG1 ΔtatABCE (also TG1 ΔtatAE), co-expressed from plasmids pF39A-Y1 and pF39A-Y2, in living cells
- BiFC signal relative to the wt TatA homo-oligomers [7]: ~2 fold

Source: publication PMC2821923, “Visualizing Interactions along the Escherichia coli Twin-Arginine Translocation Pathway Using Protein Fragment Complementation” (PLoS ONE, 2010)
